Data: patent publication US20160347840A1 (Janssen / Centocor, published 2016)
Residue numbers refer to the chain shown, from its start. Numbers in names are those of the source.

T1: cynomolgus PSMA extracellular domain (PSMW1), 6His and Avi tag (cynomolgus, UniProt Q04609 44-750 (human entry), biotinylated in bead-based selections and the ELISA screen)
T1 construct: Cloned along with a 6His and Avi tag; also called cynomolgus monkey PSMA; pan 230
T1 chain: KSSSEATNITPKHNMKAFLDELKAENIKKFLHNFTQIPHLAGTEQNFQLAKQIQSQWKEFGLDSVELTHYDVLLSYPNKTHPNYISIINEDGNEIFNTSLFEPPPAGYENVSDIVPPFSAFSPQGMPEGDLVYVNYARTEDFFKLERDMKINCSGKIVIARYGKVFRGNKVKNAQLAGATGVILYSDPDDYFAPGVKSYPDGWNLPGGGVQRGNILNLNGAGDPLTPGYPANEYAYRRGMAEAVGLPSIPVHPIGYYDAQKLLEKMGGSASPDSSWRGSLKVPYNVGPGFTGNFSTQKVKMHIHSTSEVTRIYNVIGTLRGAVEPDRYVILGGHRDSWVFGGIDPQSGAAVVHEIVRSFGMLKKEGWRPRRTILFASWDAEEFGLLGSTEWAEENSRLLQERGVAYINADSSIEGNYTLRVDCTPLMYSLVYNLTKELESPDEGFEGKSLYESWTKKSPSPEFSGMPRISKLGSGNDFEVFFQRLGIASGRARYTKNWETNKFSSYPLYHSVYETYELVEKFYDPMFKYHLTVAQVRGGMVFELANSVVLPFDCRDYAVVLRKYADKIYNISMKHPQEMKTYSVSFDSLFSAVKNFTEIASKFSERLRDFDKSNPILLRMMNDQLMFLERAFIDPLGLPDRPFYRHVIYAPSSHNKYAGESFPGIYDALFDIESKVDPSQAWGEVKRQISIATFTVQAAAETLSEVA

T2: chimpanzee PSMA extracellular domain (PSMW8), 6His and Avi tag (chimpanzee, UniProt Q04609 44-750 (human entry), biotinylated in bead-based selections and the ELISA screen)
T2 construct: Cloned along with a 6His and Avi tag; Buffer with ZnCl2 to stabilise PSMA dimerisation; also called pan 229
T2 chain: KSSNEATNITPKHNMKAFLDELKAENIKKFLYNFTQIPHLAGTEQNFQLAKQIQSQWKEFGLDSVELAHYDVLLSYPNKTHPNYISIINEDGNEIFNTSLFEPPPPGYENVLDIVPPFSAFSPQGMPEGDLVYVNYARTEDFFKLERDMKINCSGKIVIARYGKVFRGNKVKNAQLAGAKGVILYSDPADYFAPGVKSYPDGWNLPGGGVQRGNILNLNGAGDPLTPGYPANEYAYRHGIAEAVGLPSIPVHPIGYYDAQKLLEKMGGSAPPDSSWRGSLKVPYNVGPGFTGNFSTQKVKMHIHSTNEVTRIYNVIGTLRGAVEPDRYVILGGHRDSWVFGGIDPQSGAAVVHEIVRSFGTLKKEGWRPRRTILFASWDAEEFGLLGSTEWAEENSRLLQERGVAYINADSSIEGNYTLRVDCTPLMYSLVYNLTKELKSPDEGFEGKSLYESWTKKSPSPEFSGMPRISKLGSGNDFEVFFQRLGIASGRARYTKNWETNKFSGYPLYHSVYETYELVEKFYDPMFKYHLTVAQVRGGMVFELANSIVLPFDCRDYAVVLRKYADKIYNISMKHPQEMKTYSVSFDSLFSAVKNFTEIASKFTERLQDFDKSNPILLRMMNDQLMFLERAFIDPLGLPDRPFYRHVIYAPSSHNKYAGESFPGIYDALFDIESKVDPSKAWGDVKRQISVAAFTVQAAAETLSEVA

B1: P234CR9_H01 (designed binder)
chain: LPAPKNLVVSRVTEDSARLSWEWWVIPGDFDSFLIQYQESEKVGEAIVLTVPGSERSYDLTGLKPGTEYTVSIYGVVNSGQWNDTSNPLSAIFTT
notes: not shown: C-terminal poly-histidine tag
B2: P233FR9P1001_B5-5 (designed binder)
chain: LPAPKNLVVSRVTEDSARLSWTAPDAAFDSFTIGYWEWDDDGEAIVLTVPGSERSYDLTGLKPGTEYPVYIAGVKGGQWSFPLSAIFTT
notes: as for B1
B3: P233FR9P1001_D9 (designed binder)
chain: B2 chain with T32P, P68W
notes: as for B1
B4: P233FR9P1001_H3-1 (designed binder)
chain: B2 chain with T32P, P68H
notes: as for B1
B5: P229CR5P819_H11 (designed binder)
chain: LPAPKNLVVSRVTEDSARLSWDIDEQRDWFDSFLIQYQESEKVGEAIVLTVPGSERSYDLTGLKPGTEYTVSIYGVYHVYRSSNPLSAIFTT
notes: In the cytotoxicity assays it was conjugated to vc-MMAF (cysteine-maleimide chemistry or sortase reaction); also called P229CR9P819-H11; not shown: C-terminal poly-histidine tag
B6: CD3B154 (antibody, human IgG1, V domains shown)
VH: EVQLLESGGGLVQPGGSLRLSCAASGFTFNTYAMNWVRQAPGKGLEWVARIRSKYNNYATYYADSVKGRFTISRDNSKNTLYLQMNSLRAEDTAVYYCVKHGNFGNSYVSWFAYWGQGTLVTVSS
VL: QTVVTQEPSLTVSPGGTVTLTCRSSTGAVTTSNYANWVQQKPGQAPRGLIGGTNKRAPGTPARFSGSLLGGKAALTLSGVQPEDEAEYYCALWYSNLWVFGGGTKLTVL
notes: Humanized SP34 variant; human IgG1 constant region with L234A, L235A, F405L; human lambda constant region; also called CDB154
B7: CD3B151 (antibody, human IgG1, V domains shown)
VH: B6 VH
VL: B6 VL with T2A, V80A
notes: Humanized SP34 variant; human IgG1 constant region with L234A, L235A, F405L; human lambda constant region; also called CDB151
B8: CD3B144 (antibody, human IgG1, V domains shown)
VH: B6 VH with L5V, D64A, N76D, T80S, R89K, A90T, V99A, K100R
VL: QSVLTQPPSVSAAPGQKVTISCRSSTGAVTTSNYANWVQQLPGTAPKGLIGGTNKRAPGIPDRFSGSKSGTSATLGITGLQTGDEADYYCALWYSNLWVFGGGTKLTVL
notes: Humanized SP34 variant; human IgG1 constant region with L234A, L235A, F405L; human lambda constant region; also called CDB144
B9: CD3B150 (antibody, human IgG1, V domains shown)
VH: B6 VH with V99A
VL: B6 VL
notes: Humanized SP34 variant; human IgG1 constant region with L234A, L235A, F405L; human lambda constant region; also called CDB150
B10: CD3B152 (antibody, human IgG1, V domains shown)
VH: B6 VH
VL: B8 VL
notes: Humanized SP34 variant; human IgG1 constant region with L234A, L235A, F405L; human lambda constant region; also called CDB152
B11: P258AR6P1070_A05 (designed binder)
chain: LPAPKNLVVSRVTEDSARLSWTIDEQRDWFDSFLIQYQESEKVGEAIVLTVPGSERSYDLTGLKPGTEYTVSIYGVYHVYRSNPLSAIFTT
notes: as for B1
B12: P258AR6P1071_G03 (designed binder)
chain: B11 chain with T22D
notes: as for B1
B13: P258AR6P1070_F09 (designed binder)
chain: B11 chain with D31E
notes: as for B1
B14: P258AR6P1071_F04 (designed binder)
chain: B11 chain with T22V
notes: as for B1
B15: P258AR6P1071_D02 (designed binder)
chain: B11 chain with T22A, D31E
notes: as for B1
B16: P234CR9_A7 (designed binder)
chain: LPAPKNLVVSRVTEDSARLSWGEQFTIFDSFLIQYQESEKVGEAIVLTVPGSERSYDLTGLKPGTEYTVSIYGASGYEWFHAFGSSNPLSAIFTT
notes: also called P234CR9_A07; not shown: C-terminal poly-histidine tag

Columns and labels:
[1] = molecular target: T3, human PSMA on tumor cells (LNCaP, MDA-PCA-2B, VCAP, 22Rv1) (human, UniProt Q04609 1-750); assay: cell-based or functional assay
T3 sequence (Q04609 whole entry): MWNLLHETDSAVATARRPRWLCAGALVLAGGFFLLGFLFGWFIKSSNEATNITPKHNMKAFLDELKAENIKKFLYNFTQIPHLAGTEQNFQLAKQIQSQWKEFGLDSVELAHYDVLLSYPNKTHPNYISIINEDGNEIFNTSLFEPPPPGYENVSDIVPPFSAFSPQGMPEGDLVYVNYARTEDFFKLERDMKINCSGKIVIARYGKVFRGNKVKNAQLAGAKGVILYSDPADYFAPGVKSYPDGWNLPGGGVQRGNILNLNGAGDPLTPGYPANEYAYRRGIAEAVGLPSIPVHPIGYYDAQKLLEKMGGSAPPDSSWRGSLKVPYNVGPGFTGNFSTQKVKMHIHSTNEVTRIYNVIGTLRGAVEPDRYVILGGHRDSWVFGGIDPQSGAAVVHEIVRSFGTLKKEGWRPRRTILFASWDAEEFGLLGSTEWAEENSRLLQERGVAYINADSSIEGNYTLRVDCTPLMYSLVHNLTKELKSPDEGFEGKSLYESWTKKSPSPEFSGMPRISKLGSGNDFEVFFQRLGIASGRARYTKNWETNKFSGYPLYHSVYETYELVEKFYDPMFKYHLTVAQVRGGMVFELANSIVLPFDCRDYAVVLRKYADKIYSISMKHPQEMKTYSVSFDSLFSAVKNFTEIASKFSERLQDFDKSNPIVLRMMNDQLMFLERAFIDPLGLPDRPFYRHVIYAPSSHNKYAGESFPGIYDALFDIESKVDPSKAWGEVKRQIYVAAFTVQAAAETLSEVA

[2] = molecular target: T3, human PSMA on tumor cells (LNCaP, …); assay: cell-based or functional assay; remark: listed apart in the source
[3] = molecular target: T1, cynomolgus PSMA extracellular domain …; assay: hit from CIS-display panning and ELISA screen on PSMA of this species (column Antigen species)
[4] = molecular target: T2, chimpanzee PSMA extracellular domain …; assay: as above
[5] = molecular target: T4, cynomolgus CD3E on primary cynomolgus CD4+ T cells (cynomolgus, UniProt Q95LI5 22-198); assay: flow cytometry on primary cynomolgus CD4+ T cells
T4 construct: whole, on cells; On the cells CD3E stands in the CD3/T cell receptor complex
T4 sequence (Q95LI5 22-198): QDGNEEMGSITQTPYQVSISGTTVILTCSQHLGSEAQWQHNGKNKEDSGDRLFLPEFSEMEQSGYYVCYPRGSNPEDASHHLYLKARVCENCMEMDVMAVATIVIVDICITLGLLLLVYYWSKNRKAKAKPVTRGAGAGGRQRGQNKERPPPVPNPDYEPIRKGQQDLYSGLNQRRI
Method: (§1) The resulting panel of anti-CD3 antibodies was tested for binding against cell-surface CD3E on primary human T cells. To do this, binding of antibodies from expression supernatants was visualized using a polyclonal anti-human secondary antibody and analyzed by flow cytometry. Briefly, binding of anti-CD3 antibodies to cell-surface CD3E was assessed by flow cytometry using primary Human T lymphocytes purified by negative selection (Biological Specialty, Colmar, USA). Expression supernatants or purified antibodies were normalized to 10 μg/ml in media or FACS buffer (BD BioSciences), respectively. 2×10⁵ cells were aliquoted into wells of a 96 well round-bottomed plate (CoStar) for labeling. Antibodies in expression supernatant were added to cells and incubated for 45 min at 4° C. Following centrifugation at 1300 rpm for 3 min and removal of supernatant, 50 μL of anti-human IgG (H+L) Alexa Fluor 647 secondary antibody (Life technologies Inc.) was incubated with the cells at a final concentration of 10 μg/mL for 30 min at 4° C. away from direct light. Following washing and resuspension in 30 μL FACs buffer (BD BioSciences). Sample collection was performed on an Intellicyt HTFC system using ForeCyt software. Viable single cells were gated prior to analysis of binding using the green or red fixable live/dead dyes (Life Technologies Inc.) and forward/side scatter area and height parameters, respectively. Graphs were generated in GraphPad Prism version 5 using mean fluorescence intensity values.
Binding analysis of the anti-CD3 hits to primary cynomolgusCD4+ T cells was then tested in order to assess the retention of cross-reactivity. Purified CD4+ T cells from the peripheral blood of cynomolgus monkeys (Zen Bio, Triangle Research Park, USA were used). Assay protocols were similar to those described above. […] This included the strong binders CD3B150, CD3B151 and CD3B154, in which binding was reduced, and several weak binders where binding could no longer be detected over background.

[6] = molecular target: T5, cell-surface CD3E on primary human T cells (human, UniProt P07766 23-207); assay: flow cytometry on primary human T cells, anti-human IgG Alexa Fluor 647 secondary
T5 construct: whole, on cells; On the cells CD3E stands in the CD3/T cell receptor complex; also called human CD3
T5 sequence (P07766 23-207): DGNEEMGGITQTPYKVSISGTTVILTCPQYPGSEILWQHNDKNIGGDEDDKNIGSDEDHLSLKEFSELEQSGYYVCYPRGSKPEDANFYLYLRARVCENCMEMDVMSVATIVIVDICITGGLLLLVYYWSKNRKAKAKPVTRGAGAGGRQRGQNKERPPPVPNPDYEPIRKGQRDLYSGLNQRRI
Method: as §1
Two in-house phage-derived antibodies with the same Fc region as the therapeutic antibodies were used as controls: G11 (HC SEQ ID NO:176, LC SEQ ID NO:177), a non-cyno cross-reactive, agonistic antibody was used as a positive control and CD3B94 (HC-SEQ ID NO:178, LC—SEQ ID NO:179) a non-binder/non-agonistic antibody was used to assess non-specific binding. The commercial SP34 antibody was not used as a comparator in this assay since it is a mouse antibody and the use of a different secondary detection reagent would have prohibited direct comparison with the variants tested.

Binder | LNCaP IC50 (nM), cytotoxicity of the FN3 domain-vcMMAF conjugate (CellTiter-Glo) [1] [nM] | binding result [3] | binding result [6] | also measured
B1 | 22.6 | binds | – | LNCaP cells IC50 (nM), cytotoxicity of FN3 domain-drug conjugate [2]: 22.6 nM; MDA-PCA-2B cells IC50 (nM), cytotoxicity of FN3 domain-drug conjugate [2]: 151 nM; VCAP cells IC50 (nM), cytotoxicity of FN3 domain-drug conjugate [2]: 401 nM
B2 | 0.5 | – | – | binding result [4]: binds
B3 | 1.4 | – | – | binding result [4]: binds
B4 | 0.4 | – | – | LNCaP cells IC50 (nM), cytotoxicity of FN3 domain-drug conjugate [2]: 0.4 nM; MDA-PCA-2B cells IC50 (nM), cytotoxicity of FN3 domain-drug conjugate [2]: 4.6 nM; VCAP cells IC50 (nM), cytotoxicity of FN3 domain-drug conjugate [2]: 15.2 nM; binding result [4]: binds
B5 | 20.7 | – | – | LNCaP cells IC50 (nM), cytotoxicity of FN3 domain-drug conjugate [2]: 9.3 nM; MDA-PCA-2B cells IC50 (nM), cytotoxicity of FN3 domain-drug conjugate [2]: 107 nM; VCAP cells IC50 (nM), cytotoxicity of FN3 domain-drug conjugate [2]: 231 nM; binding result [4]: binds
B6 | – | – | binds | binding result [5]: binds
B7 | – | – | binds | binding result [5]: binds
B8 | – | – | no binding | –
B9 | – | – | binds | binding result [5]: binds
B10 | – | – | no binding | –
B11 | 4.6 | binds | – | –
B12 | 5.8 | binds | – | –
B13 | 0.9 | binds | – | –
B14 | 5.4 | binds | – | –
B15 | 0.8 | binds | – | –
B16 | 8.8 | binds | – | –
